Kd data for 2 molecules are collected here from article doi:10.1101/2024.08.29.610253 (2024).

B1: liprin-α2_CC2N (domain or fragment)
chain: EVEQEAETARKDLIKTEEMNTKYQRDIREAMAQKEDMEERITTLEKRYLSAQRESTSIHDMNDKLENELANKEAILRQMEEKNRQLQERLELAEQKLQQTMRKAE

What all share (experiment): ITC
Experiment [1] addresses RIM1_C2B R1236E.
Experiment [2] addresses RIM1_C2B L1245Q.
The target in experiment [3] is RIM1_C2B K1240E.
Experiment [4] has as its target RIM1_C2B L1245Q. The source holds these as a separate data set.
In experiment [5] the target is RIM1_C2B R1236E. This is another data set of the same source.
Experiment [6] addresses RIM1_C2B K1240E. The source holds these as a separate data set.
The target in experiment [7] is B1.
The target of experiment [8] is T1, liprin-α2_CC2 (human, UniProt O75334 259-542).
T1 chain: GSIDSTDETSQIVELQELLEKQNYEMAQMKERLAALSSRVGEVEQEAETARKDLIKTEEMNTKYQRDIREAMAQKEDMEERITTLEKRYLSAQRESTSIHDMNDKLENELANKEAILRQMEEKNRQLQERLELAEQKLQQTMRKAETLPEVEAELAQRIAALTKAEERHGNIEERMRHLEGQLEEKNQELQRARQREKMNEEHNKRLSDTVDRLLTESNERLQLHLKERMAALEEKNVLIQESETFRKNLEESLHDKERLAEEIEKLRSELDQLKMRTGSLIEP

For experiment [9], the target named is liprin-α2_CC2N R383A.
In experiment [10] the target is liprin-α2_CC2N E379R.
Experiment [11] has as its target T2, liprin-α2_CC2N E380R (human, UniProt O75334 300-404, E380R).
T2 sequence: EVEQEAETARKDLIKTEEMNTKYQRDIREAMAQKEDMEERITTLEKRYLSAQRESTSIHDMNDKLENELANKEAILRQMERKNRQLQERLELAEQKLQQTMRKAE

Experiment [12] has as its target liprin-α2_CC2N R383A. The source holds these as a separate data set.
Experiment [13] concerns the target liprin-α2_CC2N E379R. The source holds these as a separate data set.
Experiment [14] addresses T3, liprin-α2_CC2N A350S (human, UniProt O75334 300-404, A350S).
T3 sequence: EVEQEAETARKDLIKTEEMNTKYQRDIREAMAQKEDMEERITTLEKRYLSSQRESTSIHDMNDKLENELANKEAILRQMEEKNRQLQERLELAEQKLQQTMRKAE

The target in experiment [15] is T2, liprin-α2_CC2N E380R. The source holds these as a separate data set.

Like-named read-outs stand apart in the source and are kept apart here. Some results are limits rather than exact numbers.

For orientation: Kd means the free concentration of one partner at which half of the binding sites on the other are occupied at equilibrium, for simple one-to-one binding. High values mean weaker binding, low ones tighter binding. For B1, the Kd is 27 µM in experiment [1]; above 100 µM in experiment [2]; 25 µM in [3]; above 100 µM in experiment [4]; 27 µM in experiment [5]; 25 µM in [6].

B2: RIM1_C2B (domain or fragment)
chain: GPAQLVGRQTLATPAMGDIQIGMEDKKGQLEVEVIRARSLTQKPGSKSTPAPYVKVYLLENGACIAKKKTRIARKTLDPLYQQSLVFDESPQGKVLQVIVWGDYGRMDHKCFMGVAQILLEELDLSSMVIGWYKLFPPSSLVDPTLAPLTRRASQSSLESSSGPPCIRS
For B2, the Kd in experiment [7] worked out at 4 µM; in experiment [8] it was 5 µM; in experiment [9], 24 µM; in experiment [10] it was 23 µM; in experiment [11], 8.2 µM; in [12] it was 24 µM. Further, the figures for the Kd in experiment [13], in experiment [14] and in [15] were 23 µM, 5.7 µM and 8.2 µM, respectively.
